Biological target: Δ144-273 tau (full-length tau with deletion of amino acids 144-273) (UniProt P10636)
Sequence (P10636 whole entry, looked up, stated change not applied, the tested form may be a part): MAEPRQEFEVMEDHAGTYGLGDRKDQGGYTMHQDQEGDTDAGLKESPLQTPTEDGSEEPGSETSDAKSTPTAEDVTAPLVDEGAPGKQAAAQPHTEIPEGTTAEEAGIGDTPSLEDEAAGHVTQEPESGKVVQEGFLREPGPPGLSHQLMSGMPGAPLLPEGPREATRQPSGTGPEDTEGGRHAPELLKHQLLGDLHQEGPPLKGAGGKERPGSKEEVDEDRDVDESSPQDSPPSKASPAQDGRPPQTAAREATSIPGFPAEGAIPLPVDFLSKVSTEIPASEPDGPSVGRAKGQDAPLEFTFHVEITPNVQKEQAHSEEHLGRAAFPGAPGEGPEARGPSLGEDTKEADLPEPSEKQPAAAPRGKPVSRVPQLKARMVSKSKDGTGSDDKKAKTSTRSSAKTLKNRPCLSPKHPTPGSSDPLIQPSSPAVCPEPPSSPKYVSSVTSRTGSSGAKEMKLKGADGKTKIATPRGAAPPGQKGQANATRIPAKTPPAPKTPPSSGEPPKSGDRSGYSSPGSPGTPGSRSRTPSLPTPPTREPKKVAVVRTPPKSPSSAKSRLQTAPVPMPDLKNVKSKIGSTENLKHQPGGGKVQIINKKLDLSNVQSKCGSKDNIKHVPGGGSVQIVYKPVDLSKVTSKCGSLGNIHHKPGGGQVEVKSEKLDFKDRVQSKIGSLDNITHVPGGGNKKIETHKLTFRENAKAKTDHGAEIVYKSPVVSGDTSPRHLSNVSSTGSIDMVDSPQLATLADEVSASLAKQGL

Substance: active fyn kinase
- in vitro phosphorylation at Tyr18 (9G3/R1 immunoblot ratio): When compared to wild-type tau, AT8 tau and A144-273 tau had a slower rate and lower maximal level of phosphorylation at Tyr18

From US20160031978
